Source: US20250152746A1, “BASE EDITING OF ANGPTL3 AND METHODS OF USING SAME FOR TREATMENT OF DISEASE” (Verve Therapeutics, Inc., priority 2020, published 2025)

B1: GA122: ANGPTL3 gRNA; protospacer CTTTTATTTGACTATGCTGT (SEQ ID NO: 120) (nucleic acid)
guide: CUTTTATTTGACTATGCTGTGTTTTAGAGCTAGAAATAGCAAGTTAAAATAAGGCTAGTCCGTTATCAACTTGAAAAAGTGGCACCGAGTCGGTGCTTTT
modifications: 2'-O-methyl at 1, 2, other sugars, backbone and T or U not given here; further chemistry not fully specified
B2: GA111: ANGPTL3 gRNA; protospacer GCCAATGGCCTCCTTCAGTT (SEQ ID NO: 109) (nucleic acid)
guide: GCCAATGGCCTCCTTCAGTTGTTTTAGAGCTAGAAATAGCAAGTTAAAATAAGGCTAGTCCGTTATCAACTTGAAAAAGTGGCACCGAGTCGGTGCTTTT
modifications: 2'-O-methyl at 1, 2, other sugars and backbone not given here; further chemistry not fully specified
B3: GA127: ANGPTL3 gRNA; protospacer AACATGATGGTAAGACACTT (SEQ ID NO: 125) (nucleic acid)
guide: AACATGATGGTAAGACACTTGTTTTAGAGCTAGAAATAGCAAGTTAAAATAAGGCTAGTCCGTTATCAACTTGAAAAAGTGGCACCGAGTCGGTGCTTTT
modifications: 2'-O-methyl at 1, 2, other sugars and backbone not given here; further chemistry not fully specified
B4: GA126: ANGPTL3 gRNA; protospacer GGAGTAGTTCTTGGTGCTCT (SEQ ID NO: 124) (nucleic acid)
guide: GGAGTAGTTCTTGGTGCTCTGTTTTAGAGCTAGAAATAGCAAGTTAAAATAAGGCTAGTCCGTTATCAACTTGAAAAAGTGGCACCGAGTCGGTGCTTTT
modifications: 2'-O-methyl at 1, 2, other sugars and backbone not given here; further chemistry not fully specified
B5: GA129: ANGPTL3 gRNA; protospacer AGTTCTTGGTGCTCTTGGCT (SEQ ID NO: 127) (nucleic acid)
guide: AGTTCTTGGTGCTCTTGGCTGTTTTAGAGCTAGAAATAGCAAGTTAAAATAAGGCTAGTCCGTTATCAACTTGAAAAAGTGGCACCGAGTCGGTGCTTTT
modifications: 2'-O-methyl at 1, 2, other sugars and backbone not given here; further chemistry not fully specified
B6: GA108: ANGPTL3 gRNA; protospacer TCCCAACTGAAGGAGGCCAT (SEQ ID NO: 106) (nucleic acid)
guide: UCCCAACTGAAGGAGGCCATGTTTTAGAGCTAGAAATAGCAAGTTAAAATAAGGCTAGTCCGTTATCAACTTGAAAAAGTGGCACCGAGTCGGTGCTTTT
modifications: 2'-O-methyl at 1, 2, other sugars, backbone and T or U not given here; further chemistry not fully specified
B7: GA109: ANGPTL3 gRNA; protospacer GGCCTCCTTCAGTTGGGACA (SEQ ID NO: 107) (nucleic acid)
guide: GGCCTCCTTCAGTTGGGACAGTTTTAGAGCTAGAAATAGCAAGTTAAAATAAGGCTAGTCCGTTATCAACTTGAAAAAGTGGCACCGAGTCGGTGCTTTT
modifications: 2'-O-methyl at 1, 2, other sugars and backbone not given here; further chemistry not fully specified
B8: GA125: ANGPTL3 gRNA; protospacer TGATGGTAAGACACTTTGGT (SEQ ID NO: 123) (nucleic acid)
guide: UGATGGTAAGACACTTTGGTGTTTTAGAGCTAGAAATAGCAAGTTAAAATAAGGCTAGTCCGTTATCAACTTGAAAAAGTGGCACCGAGTCGGTGCTTTT
modifications: 2'-O-methyl at 1, 2, other sugars, backbone and T or U not given here; further chemistry not fully specified
B9: GA117: ANGPTL3 gRNA; protospacer ACTACAAGTCAAAAATGAAG (SEQ ID NO: 115) (nucleic acid)
guide: ACTACAAGTCAAAAATGAAGGTTTTAGAGCTAGAAATAGCAAGTTAAAATAAGGCTAGTCCGTTATCAACTTGAAAAAGTGGCACCGAGTCGGTGCTTTT
modifications: 2'-O-methyl at 1, 2, other sugars and backbone not given here; further chemistry not fully specified
B10: GA110: ANGPTL3 gRNA; protospacer GACCATGTCCCAACTGAAGG (SEQ ID NO: 108) (nucleic acid)
guide: GACCATGTCCCAACTGAAGGGTTTTAGAGCTAGAAATAGCAAGTTAAAATAAGGCTAGTCCGTTATCAACTTGAAAAAGTGGCACCGAGTCGGTGCTTTT
modifications: 2'-O-methyl at 1, 2, other sugars and backbone not given here; further chemistry not fully specified
B11: GA116: ANGPTL3 gRNA; protospacer GTAGAATTTTTTCTTCTAGG (SEQ ID NO: 114) (nucleic acid)
guide: GUAGAATTTTTTCTTCTAGGGTTTTAGAGCTAGAAATAGCAAGTTAAAATAAGGCTAGTCCGTTATCAACTTGAAAAAGTGGCACCGAGTCGGTGCTTTT
modifications: 2'-O-methyl at 1, 2, other sugars, backbone and T or U not given here; further chemistry not fully specified
B12: GA113: ANGPTL3 gRNA; protospacer ATTCTGGAGGAAATAACTAG (SEQ ID NO: 111) (nucleic acid)
guide: AUTCTGGAGGAAATAACTAGGTTTTAGAGCTAGAAATAGCAAGTTAAAATAAGGCTAGTCCGTTATCAACTTGAAAAAGTGGCACCGAGTCGGTGCTTTT
modifications: 2'-O-methyl at 1, 2, other sugars, backbone and T or U not given here; further chemistry not fully specified
B13: GA128: ANGPTL3 gRNA; protospacer TGAAGAAAGGGAGTAGTTCT (SEQ ID NO: 126) (nucleic acid)
guide: UGAAGAAAGGGAGTAGTTCTGTTTTAGAGCTAGAAATAGCAAGTTAAAATAAGGCTAGTCCGTTATCAACTTGAAAAAGTGGCACCGAGTCGGTGCTTTT
modifications: 2'-O-methyl at 1, 2, other sugars, backbone and T or U not given here; further chemistry not fully specified
B14: GA115: ANGPTL3 gRNA; protospacer AACATAGCAAATCTTGATTT (SEQ ID NO: 113) (nucleic acid)
guide: AACATAGCAAATCTTGATTTGTTTTAGAGCTAGAAATAGCAAGTTAAAATAAGGCTAGTCCGTTATCAACTTGAAAAAGTGGCACCGAGTCGGTGCTTTT
modifications: 2'-O-methyl at 1, 2, other sugars and backbone not given here; further chemistry not fully specified

Experiments:
ANGPTL3 gene [1] = test: ANGPTL3 gRNA/SpCas9 editing in primary human hepatocytes (Table 3); format: cell-based
Experimental: (§1) In set of experiments, PCSK9 gRNAs were co-transfected with an equivalent amount (1:1 ratio by weight) of in vitro transcribed commercially available SpCas9 mRNA MS002 purchased from TriLink Biotechnologies into primary human hepatocytes at 2500, 500, or 100 ng/RNA/mL and processed as described in detailed methods. Extracted genomic DNA was analyzed for gene editing at the target site with next-generation sequencing of PCR amplicons generated around the target sites. Samples were prepared using the Nextera XT DNA library preparation kit (Illumina) according to the manufacturer's protocol. Briefly, two rounds of PCR were performed first to amplify the region of interest and second to add DNA sequences required for next generation sequencing and sample identification to the initial product. The final amplicon was sequenced on the Illumina MiSeq instrument according to the manufacturer's protocol. A wide range of editing activities (Table 2) were observed. In a second set of experiments, ANGPTL3 gRNAs were co-transfected with an equivalent amount of in vitro transcribed SpCas9 mRNA (1:1 ratio by weight) into primary human hepatocytes and processed and analyzed similarly (Table 3).
(§2) Plating, culturing, and transfection of primary hepatocytes. Primary human liver hepatocytes (PHH) and primary cynomolgus liver hepatocytes (PCH) from BioIVT were cultured per the manufacturer's protocol. Briefly, primary human hepatocytes and primary cyno hepatocytes were obtained as frozen aliquots from BioIVT. Four lots of primary human hepatocytes, each derived from a de-identified individual donor, were used for the experiments: STL (main donor) was used for all experiments, including screening experiments and off-target experiments; HLY, JLP, and TLY were used for off-target experiments. The HFG lot of primary cyno hepatocytes were used for experiments. Following the manufacturer's instructions, cells were thawed and rinsed prior to plating in 24-well plates that had been coated with bovine collagen overnight, with a density of approximate 350,000 cells/well in INVITROGRO hepatocyte medium supplemented with TORPEDO antibiotic mix (BioIVT). The cells were thawed and resuspended in hepatocyte thawing medium followed by centrifugation at 100 g for 10 min at 4° C. The supernatant was discarded, and the pelleted cells resuspended in hepatocyte plating medium. Each vial contains approximately 5 million cells that were used for plating one 24-well plate. Plated cells were allowed to settle and adhere for 4-6 h in a tissue culture incubator at 37° C. under 5% CO2 atmosphere. After incubation, cells were checked for monolayer formation. The incubating media were then replaced with fresh hepatocyte maintenance media (complete INVITROGRO medium obtained from BioIVT, the cell line provider). The cells thus became ready for transfection. Each of the gRNAs were co-transfected with an equivalent amount of in vitro transcribed ABE8.8 mRNA (1:1 ratio by molecular weight) into primary human hepatocytes via MessengerMax reagent (Lipofectamine), using various dilutions to assess for editing activity at different concentrations of test article. MessengerMAX from Thermo Fisher is used for transfection. Solution A: desired amount of guide RNA is mixed with 1:1 wt ratio of mRNA in OptiMEM. Solution B: MessengerMAX in OptiMEM. After mixing solutions A and B, the mixture was incubated at room temperature for 20 min. 60 μL of the incubated solution was added dropwise to each cell wells. For protospacer sequences that were a perfect match to the corresponding cynomolgous monkey PCSK9 or ANGPTL3 gene sequence, each gRNA was also co-transfected with an equivalent amount of ABE8.8 mRNA (1:1 ratio by molecular weight) into primary cynomolgous hepatocytes, and followed the same transfection protocol. The cells were then allowed to remain at 37° C. for 3 days. […]

ANGPTL3 gene [2] = test: ANGPTL3 gRNA/SpCas9 editing in primary cynomolgus hepatocytes (Table 3); format: cell-based, cynomolgus monkey
Experimental: as §1, §2

Molecule | Human Primary Hepatocyte Editing % 100 ng/ml (ANGPTL3 gene [1]) [%] | Human Primary Hepatocyte Editing % 500 ng/mL (ANGPTL3 gene [1]) [%] | Cyno Primary Hepatocyte Editing % 100 ng/mL (ANGPTL3 gene [2]) [%] | Cyno Primary Hepatocyte Editing % 500 ng/ml (ANGPTL3 gene [2]) [%]
B1 | 4.45 | 13.82 | 7.28 | 16.76
B2 | 10.72 | 24.08 | 22.61 | 28.98
B3 | 5.77 | 18.74 | 19.89 | 33.67
B4 | 6.73 | 15.21 | 8.29 | 17.57
B5 | – | – | 5.36 | 20.06
B6 | 4.95 | 19.43 | 4.11 | 15.49
B7 | 6.60 | 18.07 | 4.15 | 15.11
B8 | 5.04 | 16.27 | 12.91 | 19.72
B9 | 7.08 | 16.55 | 10.01 | 26.11
B10 | 5.37 | 13.63 | 8.59 | 15.99
B11 | 3.78 | 16.33 | 10.84 | 19.83
B12 | 6.00 | 19.97 | 12.07 | 26.67
B13 | 10.29 | 25.39 | 0.19 | 32.55
B14 | – | – | 12.58 | 25.51
